Data as given in patent US8003854B2, “GRG32: a novel EPSP synthase gene conferring herbicide resistance” (Athenix Corp., priority 2006, dated 2011).

Tested on: E. coli cells
Test: Glyphosate screen: growth of pRSF1b clones on M63+ plates with glyphosate
Format: cell-based
Conditions: two days at 37° C.
Experimental: The pRSF1b clones were plated onto M63+ plates containing antibiotic and either 0 mM or 50 mM glyphosate. Growth was scored after two days growth at 37° C.

B1: GRG32: glyphosate-resistant EPSP synthase; predicted translation product of grg32 (SEQ ID NO:2), expressed from clone pAX1950 in pRSF1b (protein)
chain: MTASASWTARKGQPLQGSLTIPGDKSVSHRAVMFAALADGVSHIDGFLEGEDTRATAAIFSQMGVRIETPSPSQRIVHGVGVDGLQAPAGPLDCGNAGTGMRLLAGLLAAQPFDAVMVGDESLSRRPMRRVTGPLAQMGAKIDTEADGTPPLRVHGGQPLHGIDFASPVASAQVKSAVLLAGLYAQGETSVTEPHPTRDYSERMLRAFGVEIEFSPGKARLRGGQRLRATDIAVPADFSSAAFFLVAASIIPGSALTLRQVGLNPRRTGLLAALRLMGADIREENHAEQGGEAVADLVVRHAPLHGAEIPEALVPDMIDEFPALFVAAAAAQGNTIVRGAAELRVKESDRLAAMATGLRSLGVQVDETEDGATIHGGHELGSGTIESHGDHRIAMAFAIAGQLSSGEVRINDIANVATSFPNFDGIARTAGFNLG
modifications: Isolated from soil sample
resistance to 50 mM glyphosate in E. coli cells: confer resistance
